Test results reported in the supplement of paper PMC12764529.
± gives the half width of the 95% confidence interval.

Experiments:
[1] = folding stability dG unfold from trypsin proteolysis; higher = more stable
Outline: (§1)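 Designed mini-proteins (under 80 residues, no cysteine) in a PA-tagged cDNA display construct were digested with trypsin and chymotrypsin. Each protease was used at 11 concentrations (threefold dilutions) plus a no-protease condition, followed by sequencing. K50 was inferred by Bayesian fitting of sequencing counts, and unfolding free energy was derived against a sequence-predicted unfolded-state K50 and a shared folded-state K50, per protease or combined. Only designs with AlphaFold2 dimer inter-PAE above 15 were kept.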

[2] = folding stability dG unfold from chymotrypsin proteolysis; higher = more stable
Outline: as §1

[3] = folding stability dG unfold (combined trypsin and chymotrypsin); higher = more stable
Outline: as §1

| Sequence | folding stability dG unfold [1] | folding stability dG unfold [2] | folding stability dG unfold [3] |
| --- | --- | --- | --- |
| SAGGSAGGSSVEVTEDPSTGKLTVTVPPDLTSVTIKEKDKTITIPLPPGASITLPSGTVTVALSAGGSAGGS [r20_26_JUSTAS] | 1.56 ± 0.059 kcal/mol | -0.168 ± 0.1 kcal/mol | 0.935 ± 0.1 kcal/mol |
| SAGGSAGGSSVEYTFLSKNPEEAKKKFEEKIKEIEEKGEGKIEKAEFTIVSPDNPEYLKLISSSAGGSAGGS [r12_551_JUSTAS] | 0.213 ± 0.05 kcal/mol | 0.136 ± 0.26 kcal/mol | 0.259 ± 0.13 kcal/mol |
| SAGGSAGGSSVPEGWEVEREKVLEAEIVGEDGPVLRVRLYRVRVRPVDGPPRYFFELDVDDVDSAGGSAGGS [r12_544_TrMRF] | 2.38 ± 0.095 kcal/mol | 2.915 ± 0.027 kcal/mol | 2.74 ± 0.11 kcal/mol |
| SAGGSAGGSSVSVGVPSSYASVEVTVLKEEPGKGLVTVKVTTTVPGTGEVLTETVTIPRSELLSAGGSAGGS [r12_964_JUSTAS] | 1.01 ± 0.034 kcal/mol | 0.517 ± 0.043 kcal/mol | 0.828 ± 0.046 kcal/mol |
| SAGGSAGGSSYLVEVISRKKVKVGGKERYVVPVRIPDNGELVELVVSEDVAKNIKPGDVVVLSSAGGSAGGS [r12_382_TrMRF] | -0.00477 ± 0.058 kcal/mol | -0.00598 ± 0.12 kcal/mol | 0.0239 ± 0.12 kcal/mol |
| SAGGSAGGSTAKEIADKLGFDNVEIKPTKPVEQRKDPNGKWRRQYVYTIKIRNPDGREWTIPISAGGSAGGS [r12_221_TrROS] | 0.626 ± 0.093 kcal/mol | 0.449 ± 0.24 kcal/mol | 0.528 ± 0.13 kcal/mol |
| SAGGSAGGSTLTVEIQITDADGNTLTAKVTLTFEPAPPPPPPPTVERRTTTVDGKTVTEYRRLSAGGSAGGS [r12_128_TrROS_Hall] | 0.631 ± 0.18 kcal/mol | 1.04 ± 0.22 kcal/mol | 0.969 ± 0.13 kcal/mol |
| SAGGSAGGSTVEEELLEKAAAAHPPGTTLTVDVVIVDPNNPVPIGTRTVTITVNADGSYTVVDSAGGSAGGS [r20_151_JUSTAS] | 2.18 ± 0.07 kcal/mol | 2.65 ± 0.054 kcal/mol | 2.46 ± 0.09 kcal/mol |
| SAGGSAGGSTVTIEIPGFKTPEEIAKAIAEKTGKKVKEVKVEKDKKNKTYTITVTVDGKEITFSAGGSAGGS [r12_935_TrROS_Hall] | 0.333 ± 0.082 kcal/mol | 1.03 ± 0.087 kcal/mol | 0.805 ± 0.15 kcal/mol |
| SAGGSAGGSVEDVVKKENVEKAEVKPEPNPPVTLTKITSKNPNSNTTLTGTLVVVDPKNGLLLSAGGSAGGS [r12_133_JUSTAS] | -0.344 ± 0.12 kcal/mol | 0.157 ± 0.21 kcal/mol | 0.0723 ± 0.11 kcal/mol |
| SAGGSAGGSVIPYFDENAVALLVKGPGDYYRIIFKPNDGYLVLLLPKEVIKSKPIPIGELLKKSAGGSAGGS [r20_90_TrMRF] | 0.672 ± 0.11 kcal/mol | 1.33 ± 0.38 kcal/mol | 0.948 ± 0.43 kcal/mol |
| SAGGSAGGSVKVYTIEFLGDGKPYLLSIDDNGNFVIYVPNPKNIDAVKKAIPSNYKIVEIKPLSAGGSAGGS [r12_9_TrMRF] | 0.989 ± 0.036 kcal/mol | 2.01 ± 0.13 kcal/mol | 1.52 ± 0.17 kcal/mol |
| SAGGSAGGSVLPDVLRTLFPDAKVTVKVTEVSETSATVDVEVEVPVPGGSTRRFRLKLEVPLSSAGGSAGGS [r20_78_TrMRF] | 1.78 ± 0.029 kcal/mol | 2.34 ± 0.044 kcal/mol | 2.14 ± 0.066 kcal/mol |
| SAGGSAGGSVVPVKAVFKLPDGDEVEGLALVDNRPDGSLVVLFQLPGTGETVGSATAELLKVEGSAGGSAGG [r6_254_TrMRF] | 0.523 ± 0.032 kcal/mol | 0.727 ± 0.1 kcal/mol | 0.638 ± 0.11 kcal/mol |
| SAGGSAGGSVYSAKSPDGYTITISNGGKPITLPVSDPAKAASLTLKTPDGKTATVTIVPASLASAGGSAGGS [r12_730_JUSTAS] | -0.229 ± 0.12 kcal/mol | -0.295 ± 0.23 kcal/mol | -0.216 ± 0.17 kcal/mol |
| SAGGSAGGSWEWITAEEALKRAREENPPGKPIEFHFEDPWYFTVRFDGEDPNDVTIEWVPLEKSAGGSAGGS [r12_648_TrROS] | 1.39 ± 0.087 kcal/mol | 1.47 ± 0.18 kcal/mol | 1.4 ± 0.2 kcal/mol |
| SAGGSAGGSWIPLPDGYLIKITEVVPGGIRIKFPDMGNEITIPPGMPIKIKIIPVKDPDGEPISAGGSAGGS [r20_105_TrROS] | 1.03 ± 0.056 kcal/mol | 0.838 ± 0.05 kcal/mol | 0.9 ± 0.14 kcal/mol |
| SAGGSAGGSWMYKKNPDGKLEPLPPIRPVPIKIPVPINGRWIPVPIWMTVADIDYIIKEFLKNSAGGSAGGS [r20_148_TrROS] | 1.48 ± 0.042 kcal/mol | 0.785 ± 0.15 kcal/mol | 1.41 ± 0.15 kcal/mol |
| SAGGSAGGSWRTITYEFKLPKPGQTAEDIAKEIMQLFPGVKDIEIKYYPEEGYIKVDIRFRPNSAGGSAGGS [r20_31_TrROS] | 3.37 ± 0.2 kcal/mol | 2.88 ± 0.042 kcal/mol | 3.13 ± 0.22 kcal/mol |
| SAGGSAGGSYWFSITFKINFWVIDGNRIHPVPIEITILIKIPPIPPDEMKPEPTPDGEPKYDFSAGGSAGGS [r12_1031_TrROS] | 2.73 ± 0.15 kcal/mol | 4.64 ± 0.2 kcal/mol | 4.29 ± 0.23 kcal/mol |
| SAGGSAGGSYYMIEIEFPDTGQRITFPFKSLEEAKEFLPPGAPIREIEVQPIKPPVDPEQQNESAGGSAGGS [r12_851_TrROS] | 0.809 ± 0.054 kcal/mol | 1.31 ± 0.12 kcal/mol | 1.24 ± 0.11 kcal/mol |
